In the DeepSol protein solubility set:

assay: soluble on expression in E. coli; label from the status in PepcDB or PDB records

**Q.** For “MNNQKQQKPTLSGQRFKTRKRDEKERFDPTQFQDCIIQGLTETGTDLEAVAKFLDASGAKLDYRRYAETLFDILVAGGMLAPGGTLADDMMRTDVCVFAAQEDLETMQAFAQVFNKLIRRYKYLEKGFEDEVKKLLLFLKGFSESERNKLAMLTGVLLANGTLNASILNSLYNENLVKEGVSAAFAVKLFKSWINEKDINAVAASLRKVSMDNRLMELFPANKQSVEHFTKYFTEAGLKELSEYVRNQQTIGARKELQKELQEQMSRGDPFKDIILYVKEEMKKNNIPEPVVIGIVWSSVMSTVEWNKKEELVAEQAIKHLKQYSPLLAAFTTQGQSELTLLLKIQEYCYDNIHFMKAFQKIVVLFYKAEVLSEEPILKWYKDAHVAKGKSVFLEQMKKFVEWLKNAEEESESEAEEGD”, which “soluble on expression in E. coli” value is on record?
**A.** soluble

**Q.** Which “soluble on expression in E. coli” value does the source give for “MPNFWALPPEINSTRIYLGPGSGPILAAAQGWNALASELEKTKVGLQSALDTLLESYRGQSSQALIQQTLPYVQWLTTTAEHAHKTAIQLTAAANAYEQARAAMVPPAMVRANRVQTTVLKAINWFGQFSTRIADKEADYEQMWFQDALVMENYWEAVQEAIQSTSHFEDPPEMADDYDEAWMLNTVFDYHNENAKEEVIHLVPDVNKERGPIELVTKVDKEGTIRLVYDGEPTFSYKEHPKF” here?
**A.** not soluble

**Q.** With “MKEYNYIFGPIPSRRMGNSLGISSIEKRSCTYSCVYCQLGRTKNLMKEPKKFFKTEDILEEFKEYLKEDVDIDVVTVVGEGEPTLSDDLEELILGLKAITDKPVAVITNGSMLVYEKVRKALKAADIVLPSLDAGDEETFRKINRPNAKIDFNKITEALVQFSKEYNGELWMETMIVKGFNDKTEELYAIRKILDRIDYDRLYINTPVRPPAESYVEEPSKEKLDEVIRILRGTSIQMLSSGTFFSEITDDFEAIKSIISRHPMNKFEVESFLNSRKCRDKEEVLRKLKNHADIDVVSYKNYTTYRLK” as the sequence, how does the “soluble on expression in E. coli” value read?
**A.** not soluble

**Q.** For “MSTSQTKNVSIDTIKEFMYQVLLKVGSDEENARMVRDTLIAADLRGMDTHGIQRFKTVYIDRIKKGMINPTAKPSIIRETSTTCVLDGNNGFGHVNGTIGMKMAIEKAKKYGMGMVVVRNSTHFGIAGYYSLLAAQEGCIGICGTNARSSVAATFGDEPILGTNPLAIGIPSDEAFPYCFDGATSISPTGRFEKYVRMGKTVDKSWASMKGGKPIEDPKELLENYPKGKAYLHPLGGSDEVSGSHKGYCLSEFVEIMSSCLSIANFLNHIEEEKEKSGKFSLGHFFIAINVECFRDLNEFKKNVGDINRTLRNTDKLPGHDRIYTAGEKEYETEQKRRKFGDDLPLVTINEMKELSSFYNVPLPF”, which “soluble on expression in E. coli” value is on record?
**A.** soluble

**Q.** For “LKPYCRPSTSVVLQGLPMVARKTLFMLPDGGGSAFSYASLPRLKSDTAVVGLNCPYARDPENMNCTHGAMIESFCNEIRRRQPRGPYHLGGWSSGGAFAYVVAEALVNQGEEVHSLIIIDAPIPQAMEQLPRAFYEHCNSIGLFATQPGASPDGSTEPPSYLIPHFTAVVDVMLDYKLAPLHARRMPKVGIVWAADTVMDERDAPKMKGMHFMIQKRTEFGPDGWDTIMPGASFDIVRADGANHFTLMQKEHVSIISDLIDRVMA”, which “soluble on expression in E. coli” value is on record?
**A.** soluble

**Q.** For “MFSPLRRLTTTGLQLQKLQKLQKLQQFQPARAVHLTVFQQKGHSKWQNIKAVKGKNDLIRSKATNFLLRKVRGAVSRGGFDMKLNRELADLESEFRAQGLPLDTLKNFLQKMKDKPEVEYSFDIIGPSGIFLIVTAETSNKKAFENDLRKYFNKLGGFRLAADGGVRSWFEEKGVVHVDTKKGGKILNIEEMEEIGLEFDAEEVLLIEEDSTKKFELICDAKSLQTLENGLGKGGFSILQSEIEFRPVHPIDCPEAEEPKVQKLYEMLQEDEQVRQIFDNITPDE”, which “soluble on expression in E. coli” value is on record?
**A.** not soluble

**Q.** Which “soluble on expression in E. coli” value does the source give for “MGSDKIHHHHHHMIEPVSEDTILITLAPAIDDTLPARIASLVDSIRRAGFHWLVDMVPSYTTLMVVYDPVLVDFRQVTDKLRPIVHRLSTQGHTAELKSRLVELPVYYSAETGPDLQWLATESGLDCEEVIRRHSSVEYRVHALGFAPGFAFMGQVDPSIAAPRKTTPRKQVPAGSVGIANRQTAVYPQVSPGGWQLIGRCPTRLFDSTNLSLLKVGDRVRFTPISREAFLAAGGELIS” here?
**A.** not soluble

**Q.** Which “soluble on expression in E. coli” value does the source give for “MSPGAWPRPRVVVSACLGFAAVRYSGELIPDKVVAALKEHVDFVPVCPEVEIGLGVPRPVVRLVRGEGGGPRMVQPKTGEDLTERMRAFSQRFLQGLGEVEGFLLKNRSPSCALKDAKRYAHAEGGGVVGKGPGLFAQAVEEAFPLLPKEDEGRLTNPRIRAHFFTRIFALARLRRVEDLPGLMAFHARYKLLLLAYNQKEARALGRLLAGAKGRPFPEVHGAYEEGFLRATERPWRLGAMADALLHAFGHFKKALAPREKAHFLDLLADFREERLPLEAPLALLASWARRFAEPYVEAQALLEPYPRALMHVPGA” here?
**A.** soluble

**Q.** For “MEILRRECGAVEENAYIVKLSSGIDFIIDPGFSSSEWVLENAKNPKAILITHGHYDHVWDGAQLSKLLKNTPIYAPKDDVFMLENDIFHLGMPVFSPNFSVPCNKGCTTLEIANTTIKYWHFPGHTPGCSIIEIEGVIFSGDFIFYRSIGRYDFPYSNEKDMKESLLRFQNLDFPKDIEIYPGHGDKTSFFAEREHSKIWVSRMALEHHHHHH”, which “soluble on expression in E. coli” value is on record?
**A.** not soluble

**Q.** With “SLALSSPILKEILIEAPSYAPNSFTFDSTNKGFYTSVQDGRVMKYEGPNSGFVDFAYASPYWNKAFCENSTDAEKRPLCGRTYDISYNLQNNQMYIVDCYYHLSVVGSEGGHATQLATSVDGVPFKWLYAVTVDQRTGIVYFTDVSTLYDDRGVQQIMDTSDKTGRLMKYDPSTKETTLLMKELHVPGGAEVSADSSFVLVAEFLSHQIVKYWLEGPKKGTAEVLVKIPNPGNIKRNADGHFWVSSSEELDGNMHGRVDPKGIKFDEFGNILEVIPLPPPFAGEHFEQIQEHDGLLYIGTLFHGSVGILVYDKKGNSFVSSH” as the sequence, how does the “soluble on expression in E. coli” value read?
**A.** soluble

**Q.** With “MWEVIIMKTYIGKIHLKWCKNCNVPLLGRVCEVCGSKAEEVKLTPPGDPRLGFQYDMDFINKILEEEFGAKNVLNGKIILLNKIPGNEEAYEIIVDGEVKYLIYFDEDKEKWKVKLKLNGAKDLMEKGAYKKIIKIKNDVVEFLKNRKGSVLRPGIVEFTDDIEEKDDVIIVDENDRVVGVGLAVVSSEDIKNMEKGKVVKVRFFIKDNEDYKPGKIYDNLEEAFDLMVRANEGVIDNYERNAIGFIKNTYEKIKKPVMVAFSGGKDSLVTLILTLKALGKDIDVVFIDTGLEFEETLKNVEDVERHYGIKIIRLRGENFWEKVKEYGIPARDYRWCSEICKLEPLKKFIEENYEDDVLSFVGIRKYESFNRATKKRIHRNTYIKKQINALPIFHWSSLHVWIYLLREKAPYNKLYEKGFDRIGCFMCPAMEMGEMNKIKREFPKLWEKWENVLREYAEKHNLGEGWIKKGLWRWKHKRQ” as the sequence, how does the “soluble on expression in E. coli” value read?
**A.** soluble

**Q.** Which “soluble on expression in E. coli” value does the source give for “MAHHHHHHMVLHIYHAAVGEKEFQFSTNINKLTQETYELDVNEAIEEVSSTILEQLTGEDALCCECKAAPATRLIHHTMLFAETFPPRVEDLPQPVCNSANCEAVAKSRYLMDMEDATTAQGMPSPNGCFHCHKGARGAATVPLQRCSRCKVAKYCSVECQKADWKVHKQVCAPG” here?
**A.** not soluble

**Q.** For “MIEQCWSEIQEEQSPTSQIGQLRVQGLRDKRVIVEYIPLILKTFLLSKTSGVGPLIIPVRCFTCGKVIGDKYYEFKRRVEAGEDPEKVLDDLGLERYCCRRMLLSHVELIDDIMHYKVY”, which “soluble on expression in E. coli” value is on record?
**A.** soluble

**Q.** Which “soluble on expression in E. coli” value does the source give for “MAHHHHHHMPARGCAPVDEQIAGTDTEGRRYRSVEEMWGRELQGNLYDAKTGWYGKSLQYWGSVPATVSGVLGGMDHVHDIDIRDSRAFICCLPERGTTRALDCGAGIGRITKSLLCHLYDVTDLLEPVASMLEKAKEELEGFPVGDFFQSSMETAKLQPKTYDLIVIQWAAIYLTDEDFVAFLVRCKEALTPKGYIFFKENCASDDEFIVDKEDSSLTRSDKHYKRIFAAAGIEVVKEAMQGDWPDDLLKVKMYALR” here?
**A.** soluble

**Q.** With “AHHHHHHGSKDDIVESVETLVRKGMIEEAIKIVENLQENFDKVIALCKIAELTRDESFLEDAIYFLKKIKDHDNKAIGYGEVAKVYALLGYEEESLELFEEAVKLTKNLNPVDKAITLTILANRLALAGFVDLSLEMFQNAFAEIIELNIELTKKTDLIIQLAEILEASGDALDSENALKFYEMAQDIYKNLKLGQREGIIEKKIELTRTLMHTSYPDIRKLAYEGRFIQALHEIEKRFGGNNVIPLLELTAWAYKTNVFERLKLKEITMEKLSASKLSDEEKFKVVQLLLEIDDTLKAYEIAITLESQELREKALVLIGLKMIDEGEVRFVEEKIFPLLSDEKREEFINFLKNLPIA” as the sequence, how does the “soluble on expression in E. coli” value read?
**A.** soluble

**Q.** With “MNIPKVQFNPKVHKNIGIEIIELSDIYKRSDDDLENFIAKPHRIKFHNILYITQGRGTHFIDFNTYTTQAGSVVFINKNQVHAFDLINQPQGKLIIFTDEYLDTILTTIKTPLSAHNYLLTSYSPTFSLSKKIRNTCDVLLTEIEKEYQVKDPNLNFLNLIFSAVLTKLSSERTRSFEQYLSESRTEKFMTFIELLEVNYTNTRDAKIYADMLHMTYKSLNQICKLATKQTTKQLIDAYIILEAKRKLSIENIRVQQLADELGFDEVTNFVKYFKKNTLLTPSQFKKLNQG” as the sequence, how does the “soluble on expression in E. coli” value read?
**A.** not soluble

**Q.** With “AHMAMIKMSPEEIRAKSQSYGQGSDQIRQILSDLTRAQGEIAANWEGQAFSRFEEQFQQLSPKVEKFAQLLEEIKQQLNSTADAVQEQDQQLSNNFGLQ” as the sequence, how does the “soluble on expression in E. coli” value read?
**A.** soluble

**Q.** For “MSPPLAEERLTRIVQLLAERGTLRTAALTELLGVSSATIRRDLDVLAGRGLIRKLHGGAALAAPEPEAPLNQDQFYRDRQQVNHLGKQRLAGRALELIAPGQTLYLDAGTTALALAEALQRTPQLTRTLRVVTHGIDVAYVLNGECALYVVGGEVYGSTYSLTGPDALSTVSRYNYDLFFVSCTSIDPAGRLTNSNSVEAQQKASILRQSRRSVLIADQSKWGPPGFAPFAGFAEVSAWVTDRAPATARAAFEQAGVTVLEADASARELSADLEHHHHHH”, which “soluble on expression in E. coli” value is on record?
**A.** soluble

**Q.** Which “soluble on expression in E. coli” value does the source give for “MGPLVKEKYEEVEQIPLKKPHIVSLIGGFGYREPIFRKVLTTAALDSGINYTLISGPSLDPSKFKEIPKNVQILRFVGDTFPYIRSSDAVIAPGGHSTMMEALSFGTPILSFPDEGHSEQENNAAVIEEEGYGRMLSYSTPPEVILECIREVLEDKKYRDKVKRLQRLASELDGLEHHHHHH” here?
**A.** soluble

**Q.** Which “soluble on expression in E. coli” value does the source give for “MVILLQFYKEENFKKTEIGEIPEDWEVRELKDILEVIRNGLTAKQNKDKIGYPITRIETISDSKIDITKLGYVEDIKQEDIAKYRLIIGDILFSHINSEEHIGKVAIYEGKPEFLLHGMNLLLLRPNKNKIEPYYLLYLLRHFKQKNIFKYIAKRAVNQSSINQTQLKHLKIPLPPLEEQKQIAKILSDFDNLIGTINKQIEVLNKAKKGMMKKLFTKGVFEHKSFKKSEIGEIPEDWEVVELGNEKYFKIIMGQSPPSSSYNKEGEGVPFLQGKAEFGNIYPNPVLYTNKPLKVVDDEDILISVRAPVGDVNIAPFKLCIGRGLAGIKSNKEKVDNFFVFYYLSYIKPKIEYLGGGAVFKAITKKDLESIKIPLPPLEEQKAIAKRLKAIDDLIEIKRKEKEQIEKAKKKIMNLLLTGKIRVKT” here?
**A.** soluble

**Q.** For “GTRKCELQGLWRNELGSNMTISALDVAGTFSGSYQTAVTATNKQILVSPLKGAQQPPGTKGQQPTFGFTVQWQFADSTTVFVGQCFVDRRGKEMLEMAWLLREEVPSRKDTWKATRVGTNVFTRVK”, which “soluble on expression in E. coli” value is on record?
**A.** soluble

**Q.** Which “soluble on expression in E. coli” value does the source give for “MKKYLILVGSPPACGKTYVSGELAKRLNNPVYLDKDTVIPLSKMVFKAANQPYNRDSDFFKEYVRDAEYIVTFDLAFESLNYNNCVIVNAPFSKEFRDKGYMNNLKNKLKKYNAELIPVWVSCDIDVCHKRMIKRNSDRDTWKLNNWDEYVKGQNYTTPDLEGLFVVDNSSNEDFEAGLKKLLEKVLLEHHHHHH” here?
**A.** soluble
